Source: PMC12280161, “Reconstitution of circadian clock in synthetic cells reveals principles of timekeeping” (Nature Communications, 2025)

T1: KaiC (FLAG-seKaiC-1-519) (Synechococcus elongatus, UniProt Q79PF4 1-519, initially hyperphosphorylated due to its preparation and storage at low temperatures (residues not given))
T1 construct: KaiC of Synechococcus elongatus, residues 1-519; In the model KaiC is assigned as hexamers; not measured here
T1 sequence (looked up): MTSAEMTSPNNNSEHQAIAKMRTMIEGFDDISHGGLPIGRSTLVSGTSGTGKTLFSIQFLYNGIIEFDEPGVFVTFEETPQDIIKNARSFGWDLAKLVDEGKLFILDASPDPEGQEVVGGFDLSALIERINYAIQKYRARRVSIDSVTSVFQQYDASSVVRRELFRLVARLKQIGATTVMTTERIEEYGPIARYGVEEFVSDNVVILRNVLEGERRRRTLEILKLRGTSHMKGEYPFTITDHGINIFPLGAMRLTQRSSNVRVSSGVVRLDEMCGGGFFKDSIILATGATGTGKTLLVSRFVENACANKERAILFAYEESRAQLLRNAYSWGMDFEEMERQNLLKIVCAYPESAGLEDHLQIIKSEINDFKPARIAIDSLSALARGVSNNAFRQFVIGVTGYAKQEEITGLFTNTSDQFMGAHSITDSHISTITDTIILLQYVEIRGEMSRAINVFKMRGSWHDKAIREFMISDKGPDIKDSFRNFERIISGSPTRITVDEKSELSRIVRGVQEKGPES


Molecular target: T1, KaiC (FLAG-seKaiC-1-519)
Experiment: other fluorescence titration; fluorescence quenching of KaiB-6IAF: 25 µL of a 50:50 mixture of KaiB:KaiB-6IAF at 7 µM added to 25 µL of serially diluted KaiC in a black clear-bottom 96-well plate; mean intensity followed for 22 h; without KaiA
Details: both partners purified

| binding result | Binder |
| --- | --- |
| binds | KaiB-6IAF (seKaiB-1-102-K25C-FLAG labelled with 6-iodoacetamidofluorescein) (natural protein, Synechococcus elongatus, UniProt Q79PF5 1-102, looked up, 6-(iodoacetamido)fluorescein (6IAF), thiol-reactive fluorophore, on KaiB-K25C, KaiB of Synechococcus elongatus, residues 1-102, with K25C; In the model KaiB is assigned as tetramers; not measured here; also called fluorescent KaiB; fluorescently labeled KaiB) MSPRKTYILKLYVAGNTPNSVRALCTLKNILEVEFQGVYALKVIDVLKNPQLAEEDKILATPTLAKVLPLPVRRIIGDLSDREKVLIGLDLLYGELQDSDDF |
| binds | KaiB (seKaiB-1-102-FLAG) (natural protein, Synechococcus elongatus, UniProt Q79PF5 1-102, looked up, KaiB of Synechococcus elongatus, residues 1-102; Present as half of the 50:50 KaiB:KaiB-6IAF mixture; gives no signal of its own; also called unlabelled KaiB) MSPRKTYILKLYVAGNTPNSVRALKTLKNILEVEFQGVYALKVIDVLKNPQLAEEDKILATPTLAKVLPLPVRRIIGDLSDREKVLIGLDLLYGELQDSDDF |
